# Test results taken from patent US20230295310A1 (ABCELLERA BIOLOGICS, published 2023).
# Biological target: EGFR on HeLa cells (UniProt P00533 25-1210, limits assumed)
# Experiment: cell-based or functional assay
X… HeLa EC50,Binder,Max killing %
69.3 pM,"GOMP001_bsAb_011 (bispecific antibody, human IgG1, kappa, L234A L235A) heavy 1: QVQLVQSGAEVKKPGASVKVSCKASGYTFTSHWMHWVRKAPGQGLEWIGEFNPSNGRTNYNEEFKSKATMTVDTSTNTAYMELSSLRSEDTAVYYCASRDYDYDGRYFDYWGQGTLVTVSSASTKGPSVFPLAPSSKSTSGGTAALGCLVADYFPEPVTVSWNSGALTSGVHTFPAVLQSSGLYSLSSVVTVPSSSLGTQTYICNVNHKPSNTKVDEKVEPKSCDKTHTCPPCPAPEAAGGPSVFLFPPKPKDTLMISRTPEVTCVVVDVSHEDPEVKFNWYVDGVEVHNAKTKPREEQYNSTYRVVSVLTVLHQDWLNGKEYKCKVSNKALPAPIEKTISKAKGQPREPQVYTLPPSREEMTDNQVSLTCLVKGFYPSDIAVEWESNGQPENNYKTTPPVLMSDGSFFLASKLTVDKSRWQQGNVFSCSVMHEALHNHYTQKSLSLSPG light 1: RIQMTQSPSSLSASVGDRVTITCSASSSVTYMYWYQDKPGKAPKLLIYDTSNLASGVPSRFSGSGSGTDYTFTISSLQPEDIATYYCQQWSSHIFTFGQGTKVEIKRTVAAPSVFIFPPSDKQLKSGTARVVCLLNNFYPREAKVQWKVDNALQSGNSQESVTEQDSKDSTYSLSSTLTLSKADYEKHKVYACEVTHQGLSSPVTKSFNRGEC heavy 2: EVQLVESGGGLVQPGGSLRLSCAASGFTLSSYTMNWVRYAPGKGLEWVSYISSSSRTIYYSDRVKGRFSISRDNAKNSLYLQMNSLRDEDTALYYCAREDYYDSSGFDNWGRGTLVTVSSASTKGPSVFPLAPSSKSTSGGTAALGCLVKDYFPEPVTVSWNSGALTSGVHTFPAVLQSSGLYSLSSVVTVPSSSLGTQTYICNVNHKPSNTKVDKKVEPKSCDKTHTCPPCPAPEAAGGPSVFLFPPKPKDTLMISRTPEVTCVVVDVSHEDPEVKFNWYVDGVEVHNAKTKPREEQYNSTYRVVSVLTVLHQDWLNGKEYKCKVSNKALPAPIEKTISKAKGQPRRPRVYTLPPSREEMTKNQVSLVCLVKGFYPSDIAVEWESNGQPENNYKTTPPVLDSDGSFFLYSVLTVDKSRWQQGNVFSCSVMHEALHNHYTQKSLSLSPG light 2: DIRMTQSPSSFSASTGDRVTITCRASQGISSYLAWYQRKPGDAPKLLIYTASTLQSGVPSRFSGSGSGTDFTLTIRSLQSEDFATYYCQQYYSYPRTFGQGTKVEIKRTVAAPSVFIFPPSDEQLKSGTASVVCLLNNFYPREAKVQWKVDNALQSGNSQESVTEQDSKDSTYSLSSTLTLSKADYEKHKVYACEVTHQGLSSPVTKSFNRGEC",77.8%
668 pM,"GOMP001_bsAb_013 (bispecific antibody, human IgG1, kappa, L234A L235A) heavy 1: QVQLVQSGAEVKKPGASVKVSCKASGYTFTSHWMHWVRKAPGQGLEWIGEFNPSNGRTNYNEEFKSKATMTVDTSTNTAYMELSSLRSEDTAVYYCASRDYDYDGRYFDYWGQGTLVTVSSASTKGPSVFPLAPSSKSTSGGTAALGCLVADYFPEPVTVSWNSGALTSGVHTFPAVLQSSGLYSLSSVVTVPSSSLGTQTYICNVNHKPSNTKVDEKVEPKSCDKTHTCPPCPAPEAAGGPSVFLFPPKPKDTLMISRTPEVTCVVVDVSHEDPEVKFNWYVDGVEVHNAKTKPREEQYNSTYRVVSVLTVLHQDWLNGKEYKCKVSNKALPAPIEKTISKAKGQPREPQVYTLPPSREEMTDNQVSLTCLVKGFYPSDIAVEWESNGQPENNYKTTPPVLMSDGSFFLASKLTVDKSRWQQGNVFSCSVMHEALHNHYTQKSLSLSPG light 1: RIQMTQSPSSLSASVGDRVTITCSASSSVTYMYWYQDKPGKAPKLLIYDTSNLASGVPSRFSGSGSGTDYTFTISSLQPEDIATYYCQQWSSHIFTFGQGTKVEIKRTVAAPSVFIFPPSDKQLKSGTARVVCLLNNFYPREAKVQWKVDNALQSGNSQESVTEQDSKDSTYSLSSTLTLSKADYEKHKVYACEVTHQGLSSPVTKSFNRGEC heavy 2: QVQLVQSGAEVKKPGASVKVSCKASGYTFTSYDINWVRYATGQGLEWMGWMNPKSGKTGYAQKFQGRITMTRNTPISTVYMDLSSLRSEDTAVYYCAREGHYDFWTGYYSFDYWGRGTLVTVSSASTKGPSVFPLAPSSKSTSGGTAALGCLVKDYFPEPVTVSWNSGALTSGVHTFPAVLQSSGLYSLSSVVTVPSSSLGTQTYICNVNHKPSNTKVDKKVEPKSCDKTHTCPPCPAPEAAGGPSVFLFPPKPKDTLMISRTPEVTCVVVDVSHEDPEVKFNWYVDGVEVHNAKTKPREEQYNSTYRVVSVLTVLHQDWLNGKEYKCKVSNKALPAPIEKTISKAKGQPRRPRVYTLPPSREEMTKNQVSLVCLVKGFYPSDIAVEWESNGQPENNYKTTPPVLDSDGSFFLYSVLTVDKSRWQQGNVFSCSVMHEALHNHYTQKSLSLSPG light 2: DIQMTQSPSSLSASVGDRVTITCRASQGIRNDLGWYQRTPGDAPKRLIYAASSLQSGVPSRFSGSGSGTEFTLTISSLQPEDFATYYCLQHYSYPYTFGQGTKLEIKRTVAAPSVFIFPPSDEQLKSGTASVVCLLNNFYPREAKVQWKVDNALQSGNSQESVTEQDSKDSTYSLSSTLTLSKADYEKHKVYACEVTHQGLSSPVTKSFNRGEC",80.8%
39.5 pM,"GOMP001_bsAb_012 (bispecific antibody, human IgG1, kappa, L234A L235A) heavy 1: EVQLVESGGGLVQPGGSLRLSCAASGFTLSSYTMNWVRKAPGKGLEWVSYISSSSRTIYYSDEVKGRFSISRDNAKNSLYLQMNSLRDEDTALYYCAREDYYDSSGFDNWGQGTLVTVSSASTKGPSVFPLAPSSKSTSGGTAALGCLVADYFPEPVTVSWNSGALTSGVHTFPAVLQSSGLYSLSSVVTVPSSSLGTQTYICNVNHKPSNTKVDEKVEPKSCDKTHTCPPCPAPEAAGGPSVFLFPPKPKDTLMISRTPEVTCVVVDVSHEDPEVKFNWYVDGVEVHNAKTKPREEQYNSTYRVVSVLTVLHQDWLNGKEYKCKVSNKALPAPIEKTISKAKGQPREPQVYTLPPSREEMTDNQVSLTCLVKGFYPSDIAVEWESNGQPENNYKTTPPVLMSDGSFFLASKLTVDKSRWQQGNVFSCSVMHEALHNHYTQKSLSLSPG light 1: RIRMTQSPSSFSASTGDRVTITCRASQGISSYLAWYQDKPGKAPKLLIYTASTLQSGVPSRFSGSGSGTDFTLTIRSLQSEDFATYYCQQYYSYPRTFGQGTKVEIKRTVAAPSVFIFPPSDKQLKSGTARVVCLLNNFYPREAKVQWKVDNALQSGNSQESVTEQDSKDSTYSLSSTLTLSKADYEKHKVYACEVTHQGLSSPVTKSFNRGEC heavy 2: QVQLVQSGAEVKKPGASVKVSCKASGYTFTSHWMHWVRYAPGQGLEWIGEFNPSNGRTNYNEKFKSKATMTVDTSTNTAYMELSSLRSEDTAVYYCASRDYDYDGRYFDYWGRGTLVTVSSASTKGPSVFPLAPSSKSTSGGTAALGCLVKDYFPEPVTVSWNSGALTSGVHTFPAVLQSSGLYSLSSVVTVPSSSLGTQTYICNVNHKPSNTKVDKKVEPKSCDKTHTCPPCPAPEAAGGPSVFLFPPKPKDTLMISRTPEVTCVVVDVSHEDPEVKFNWYVDGVEVHNAKTKPREEQYNSTYRVVSVLTVLHQDWLNGKEYKCKVSNKALPAPIEKTISKAKGQPRRPRVYTLPPSREEMTKNQVSLVCLVKGFYPSDIAVEWESNGQPENNYKTTPPVLDSDGSFFLYSVLTVDKSRWQQGNVFSCSVMHEALHNHYTQKSLSLSPG light 2: DIQMTQSPSSLSASVGDRVTITCSASSSVTYMYWYQRKPGDAPKLLIYDTSNLASGVPSRFSGSGSGTDYTFTISSLQPEDIATYYCQQWSSHIFTFGQGTKVEIKRTVAAPSVFIFPPSDEQLKSGTASVVCLLNNFYPREAKVQWKVDNALQSGNSQESVTEQDSKDSTYSLSSTLTLSKADYEKHKVYACEVTHQGLSSPVTKSFNRGEC",93.3%
